Variants at the floor of the assay were thinned out.
System: biotinyl-Phe-oxazolone
Assay: self-aminoacylation, catalytic enhancement (BFO) (fold over background); higher = more active; k-Seq, kA / k0A0; sequences stand for … in GGGAAUGGAUCCACAUCUACGAAUUC…UUCACUGCAGACUUGACGAAGCUG
Summary of the method: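 Mutagenized RNA pools with a 21-nt variable region (0.43 μM) were reacted with each biotinyl-aminoacyl-oxazolone at 2–1250 μM for 90 minutes at room temperature, in 50 μL HEPES/NaCl/KCl/MgCl2/CaCl2 buffer containing 5% acetonitrile at pH 6.9–7.0. RNA captured on streptavidin was quantified by triplicate qPCR and by Illumina sequencing. The fraction reacted for each sequence was fit to a pseudo-first-order model with bootstrapping, and catalytic enhancement is the median kA divided by the uncatalyzed rate, taken as the low-activity peak of a bimodal Gaussian fit.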

CAGUUUGCUAAUAGUCGAAAG [Fam3.1 aminoacylation ribozyme variant]
self-aminoacylation: 2.53

AAGUUGUCUAAUAGUCGCAAG [Fam3.1 aminoacylation ribozyme variant]
self-aminoacylation: 2.35

AAGGUUGCUGAUAGUCGCAAG [Fam3.1 aminoacylation ribozyme variant]
self-aminoacylation: 2.05

AAGUUUUCUUAUAGUCGCAAG [Fam3.1 aminoacylation ribozyme variant]
self-aminoacylation: 3.91

AAGUUUGUUAAUAGUCGCAAG [Fam3.1 aminoacylation ribozyme variant]
self-aminoacylation: 2.01

CUACGUCAACCAAUCGGUCUG [Fam1A.1 aminoacylation ribozyme variant]
self-aminoacylation: 3.4

UUACUUCGAACAAUCGGUCUG [Fam1A.1 aminoacylation ribozyme variant]
self-aminoacylation: 2.19

AAGUUAGCUGAUAGUCGCAAG [Fam3.1 aminoacylation ribozyme variant]
self-aminoacylation: 2.26

GAGGUUGCUAAUAGUCGCAAG [Fam3.1 aminoacylation ribozyme variant]
self-aminoacylation: 3.14

AUACGUCAAACAAUCGGUCUG [Fam1A.1 aminoacylation ribozyme variant]
self-aminoacylation: 5.56

AUUCACCGAGGUCAUCGUGUG [Fam2.2 aminoacylation ribozyme variant]
self-aminoacylation: 6.45

CCACUUCAAACAACCGGUCUG [Fam1A.1 aminoacylation ribozyme variant]
self-aminoacylation: 2.13

AUUCACCUAGGUCACCGGAUG [Fam2.2 aminoacylation ribozyme variant]
self-aminoacylation: 2.86

AUUCACCAAGGUCAUCGUGUG [Fam2.2 aminoacylation ribozyme variant]
self-aminoacylation: 8.03

AUUACCCUGGUCGUCGAGGGA [Fam2.1 aminoacylation ribozyme variant]
self-aminoacylation: 6.85

AUUCAGCUAGGUCAUCGUGUG [Fam2.2 aminoacylation ribozyme variant]
self-aminoacylation: 3.57

AUUCACCUAGGUCUUCGGGAG [Fam2.2 aminoacylation ribozyme variant]
self-aminoacylation: 4.51

CUACGUCAAAGAAUCGGUCUG [Fam1A.1 aminoacylation ribozyme variant]
self-aminoacylation: 3.41

AAGUUUUCUAAUAGUCGCAAC [Fam3.1 aminoacylation ribozyme variant]
self-aminoacylation: 2.43

CUACUUCAAACAAUCACUCUG [Fam1A.1 aminoacylation ribozyme variant]
self-aminoacylation: 2.98

AAGUUUACUAAUAGGCGCAAG [Fam3.1 aminoacylation ribozyme variant]
self-aminoacylation: 2.02

ACGUUUGCUAAUGGUCGCAAG [Fam3.1 aminoacylation ribozyme variant]
self-aminoacylation: 3.94

AAGUUUUCUAAUUGUCGCAAG [Fam3.1 aminoacylation ribozyme variant]
self-aminoacylation: 2.33

CUUACCCUGGUCGUCGAGUGA [Fam2.1 aminoacylation ribozyme variant]
self-aminoacylation: 5.47

AAGUUUGCUUAUAGUCGCAGG [Fam3.1 aminoacylation ribozyme variant]
self-aminoacylation: 2.26

AAGUUUGCUAAUAGUAGCAAA [Fam3.1 aminoacylation ribozyme variant]
self-aminoacylation: 2.93

AUUACCCUGGUCAACGUGUGA [Fam2.1 aminoacylation ribozyme variant]
self-aminoacylation: 4.08

UUACUGCAAACAAUCGGUCUG [Fam1A.1 aminoacylation ribozyme variant]
self-aminoacylation: 4.6

CCACACUUCACGCAUUCGGUC [Fam1B.1 aminoacylation ribozyme variant]
self-aminoacylation: 2.45

AUUCACCUAGGUCACAGGGUG [Fam2.2 aminoacylation ribozyme variant]
self-aminoacylation: 5.68

AGGUUUGCUAAUAGUCGCAUG [Fam3.1 aminoacylation ribozyme variant]
self-aminoacylation: 3.56

AAGUUUACUAAUAGCCGCAAG [Fam3.1 aminoacylation ribozyme variant]
self-aminoacylation: 2.1

AAGUCUGCUAAGAGUCGCAAG [Fam3.1 aminoacylation ribozyme variant]
self-aminoacylation: 4.79
